Source: publication PMC4450592

Key:
[1] = target: HIS-gG3PD (full-length gG3PD, N-terminal 6xHIS-tagged) (Giardia duodenalis (isolate WB clone C6)); test: native gel or EMSA; 3-12% Blue Native PAGE of purified HIS-tagged recombinant proteins (1 μg by the methods, 3 μmol by the legend), silver stain or anti-HIS blot
[2] = target: HIS-gG3PD_C (C-terminal half of gG3PD, N-terminal 6xHIS-tagged) (Giardia duodenalis (isolate WB clone C6)); test: as above

stoichiometry N [1]	stoichiometry N [2]	Substance
2		HIS-gG3PD (full-length gG3PD, N-terminal 6xHIS-tagged) (enzyme)
	2	HIS-gG3PD_C (C-terminal half of gG3PD, N-terminal 6xHIS-tagged) (domain or fragment)
